According to paper PMC12599289, “Kinetic and homology model analysis of diaminopimelate decarboxylase from Cyanothece sp. ATCC 51142: unveiling a key enzyme in lysine biosynthesis” (Bioscience Reports, 2025):

Substrate: NC(CCCC(N)C(=O)O)C(=O)O
Assay: purified protein
Format: biochemical, Crocosphaera subtropica
Details: 0.1 mM PLP, 20 mM Tris-HCl pH 8.0, methods say room temperature, abstract says 30°C, DAP 0.5-15 mM

B1: CsDAPDC (Crocosphaera subtropica ATCC 51142) (protein)
chain: MIATPTKTPHTGQDYLKIKINATDSTKRSPNQSLLPLTANINAHDHLEIGGCDLQTLVEQFGSPLYILDEMTLRTACRQYRDNFQTYYKGESQVIYASKAWSCLAVVGVIARENLGFDVVSGGELYTTQKALTQLGYSCQEIAKKIYFHGNNKSEAELKEAIKVGCTIIVDNWLELQTLAQLGNDTPNLTIPILIRLTPGIECHTHEYIRTGHLDSKFGFDPNQLEAVFTYISQQTSLDCRGLHAHIGSQIFERQPHQDLAGVLVEWLKIGREYGLNLSELNIGGGLGICYTEEDDPPSIEEWVKAVSEAVMKACQRCEIDLPKLIAEPGRSLIGSACVTAYTVGSRKEIPELRTYIAVDGGMSDNPRPITYQSLYRVALANRMSAEISETVTIAGKHCESGDIVIKDAQLPQTHPGDILVIMGTGAYNYSMASNYNRLPRPAAVMVNQGEANLIVRRETYDDLIRQDCLPQRLLP
notes: tag removal not mentioned; dimer only from homology model
Q: What does the source list for B1?
A: Km: 1200 ± 170 µM; kcat: 1.68 s⁻¹
